Results: paper PMC4461284, “Different Modes of Transactivation of Bacteriophage Mu Late Promoters by Transcription Factor C”

B1: tin7 P2-disrupted promoter 78mer (dsDNA)
DNA 1: AATTCCGGTTGCGCCCCAATAACCACACTCAACCCATGATGTTTGTTAAGATAGTGGCGAATTGATGCAAAGGAGGTG
DNA 2: GATCCACCTCCTTTGCATCAATTCGCCACTATCTTAACAAACATCATGGGTTGAGTGTGTGGTTATTGGGGCGCAACCGGG
B2: P promoter 92mer (dsDNA)
DNA 1: AATTCACAGGGACAGTTACAGTTAACTGCCATAACCCCGGACGGCGGCTTTTCACAGGTATCCTTTTCAGACAGTGGTACAGCCACGCCCCG
DNA 2: GATCCGGGGCGTGGCTGTACCACTGTCTGAAAAGGATACCTGTGAAAAGCCGCCGTCCGGGGTTATGGCAGTTAACTGTAACTGTCCCTGTG
B3: lys promoter 92mer (dsDNA)
DNA 1: AATTCATCCTGCCGGTTATTTCCTGTCACCATAATCCCGCACCTGCCACCTGATTTTTTAGACTGCCATCAGAGAATTTTTTCAGGGAAGCG
DNA 2: GATCCGCTTCCCTGAAAAAATTCTCTGATGGCAGTCTAAAAAATCAGGTGGCAGGTGCGGGATTATGGTGACAGGAAATAACCGGCAGGATG
B4: I promoter 92mer (dsDNA)
DNA 1: AATTCTTTCTTTCTCCAGTACTCAAATAGCATAACCCCAGATTTTCCCGCACCTCCCGCAAACTGACTGCTCACAAACCATGATGAGCAGCGG
DNA 2: GATCCCGCTGCTCATCATGGTTTGTGAGCAGTCAGTTTGCGGGAGGTGCGGGAAAATCTGGGGTTATGCTATTTGAGTACTGGAGAAAGAAAG

Target: RNA polymerase (RNAP), WT (E. coli, UniProt P0A7Z4;P0A8V2;P0A8T7;P0A800;P00579 1-329;1-1342;1-1407;2-91;1-613)
Experiment: EMSA; no C protein; on ice (closed complex); EMSA: on ice 10 min, 3.5% native PAGE at 4 C; binding buffer not stated (transcription buffer: 40 mM Tris-Cl pH 8.0, 5 mM Mg acetate, 0.1 mM EDTA, 0.1 mM DTT, 100 mM KCl, 100 ug/ml BSA)
Details: protein: recombinant, (Ni-NTA purified), chain copies: 2;1;1;1;1, label: 5' 32P
[1] = 5' overhangs 4 nt (EcoRI AATT / BamHI GATC)

Row | Binder | binding result (5' overhangs (EcoRI AATT / BamHI GATC)) | binding result [1]
1 | B1 | binds | 
2 | B2 |  | binds
3 | B3 |  | binds
4 | B4 |  | binds
